Measured values from paper PMC3670040, “Structure of Lipid Kinase p110β/p85β Elucidates an Unusual SH2-Domain-Mediated Inhibitory Mechanism” (Molecular Cell, 2011).
Read-outs that look alike come from different tables or passages of the source.

Key:
[1] = system: p110β; assay: Transcreener ADP formation (fluorescence polarization), diC8-PIP2/POPS liposomes, mouse p110β complexes; assay type: biochemical; settings: Figure 5B, C-terminal truncation vs wild-type, diC8-PIP2/POPS, 100 μM ATP, 1 h, room temperature
Protocol: (§1) Figure 1 Inhibition of p110β by p85-Type Regulatory Subunits and Activation of the Complexes by RTK Phosphopeptide (A) Domain organization of p110β and the regulatory subunits p85α, p85β, and p55γ. The color scheme for the domains is used for all figures, unless otherwise stated. […] The inhibition is released upon addition of the 10 μM PDGFR pY2. […] The y axis is expressed as a change in fluorescence polarization (ΔmP), which is obtained by subtracting the observed polarization for the construct at a given enzyme concentration from the maximum fluorescence polarization for that construct. The plateau in these assays arises due to the competitive nature of the ADP detection system, based on displacement of ADP-Alexa 633 tracer from the ADP^2-antibody by ADP generated during the PI3K assay (see Supplemental Experimental Procedures). All measurements were done in triplicates, and the error bars indicate the standard error of the mean (SEM). (C) Kinase activity of p110β/p85β complexes with monomeric substrate (75 μM diC8-PIP2) in the presence and absence of pY2; y axis as in (B). (D) Basal- and pY2-stimulated activities of 35 nM PI3K complexes in the absence of lipids (ATP hydrolysis). Activities are given as percent of ATP converted to ADP using the Transcreener assay. Bars indicate SEM. TEXT PRINTED IN THE PICTURE: (B) p110β/nic: EC50 (nM): 15 | (B) p110β/nic+pY2: EC50 (nM): 0.14 | (B) p110β/ic: EC50 (nM): 1 | (B) p110β/ic+pY2: EC50 (nM): 0.21 | (B) p110β/ni: EC50 (nM): 0.84 | (B) p110β/ni+pY2: EC50 (nM): 0.24 | (B) p110β/i: EC50 (nM): 0.12 | (B) p110β/i+pY2: EC50 (nM): 0.14 | (B) ΔABD-p110β: EC50 (nM): 0.06 | (B) ΔABD-p110β+pY2: EC50 (nM): 0.05 | (C) p110β/nic: EC50 (nM): 24 | (C) p110β/nic+pY2: EC50 (nM): 3 | (C) p110β/ic: EC50 (nM): 5 | (C) p110β/ic+pY2: EC50 (nM): 2 | (C) p110β/ni: EC50 (nM): 4 | (C) p110β/ni+pY2: EC50 (nM): 2 […]
(§2) Figure 3 Mutation Y677A in p85β-cSH2 Releases Inhibitory Effect on p110β (A) Kinase activity (ADP formation) of p110β in a complex with p85β-icSH2-Y677A (Y677A-ic) compared to the wild-type complex (ic) in the absence and presence of 10 μM PDGFR pY2 (ADP formation on the y axis expressed as in Figure 1B). (B) Comparison of p110β activities of 1 nM complexes with wild-type or Y677 mutant nicSH2 or icSH2 (activity shown as in Figure 1D). TEXT PRINTED IN THE PICTURE: (A) p110β/ic: EC50 (nM): 1 | (A) p110β/ic+pY2: EC50 (nM): 0.15 | (A) p110β/ic-Y677A: EC50 (nM): 0.11 | (A) p110β/ic-Y677A+pY2: EC50 (nM): 0.08 […]
(§3) The lipid kinase activity was determined using the Transcreener ADP2 FP Assay (BellBrook Labs, Madison, WI) according to manufacturer‟s specifications. This non-radioactive assay measures activity by quantitating the amount of ADP formed. The ADP formed by PI3K competes with fluorescent ADP tracer for binding to an anti-ADP antibody, thereby decreasing fluorescence polarization. Because of the competitive nature of this assay, the change in fluorescence polarization signal is not a linear function of enzyme activity, and a convenient measure of enzyme activity is the EC50, or the concentration of enzyme necessary to give half-maximal inhibition of labeled ADP binding to the antibody, for a given concentration of substrate and a fixed time of reaction at initial rate. While activity of two different enzyme constructs can be compared at a fixed concentration of protein and a fixed concentration of substrate, the assay is most reliable when about 2%-10% of the ATP is […]
(§4) Consequently, the EC50 provides a convenient way to compare the activities of various constructs. Briefly, reactions were performed in 10 μl volume in 384-well black plates (Corning 3676) and they contained final 100 μM ATP, 75 μM lipids and a series of protein concentration varying from 0.001 nM to 2.5 μM. Serial dilutions of protein heterodimers were prepared in buffer F (50 mM Hepes pH 7.5, 100 mM NaCl, 0.03% CHAPS, 4 mM DTT) in 5 μl […]
volume. […]

[2] = target: T1, p110β (Mus musculus, UniProt Q8BTI9); assay: as above; assay type: biochemical; settings: Figure 5B
T1 construct: Mouse His6-p110β(1-1064)/p85β-icSH2(423-722) complex; made in house; host or cells: Sf9 insect cells (baculovirus co-infection)
T1 sequence (Q8BTI9 1-1047): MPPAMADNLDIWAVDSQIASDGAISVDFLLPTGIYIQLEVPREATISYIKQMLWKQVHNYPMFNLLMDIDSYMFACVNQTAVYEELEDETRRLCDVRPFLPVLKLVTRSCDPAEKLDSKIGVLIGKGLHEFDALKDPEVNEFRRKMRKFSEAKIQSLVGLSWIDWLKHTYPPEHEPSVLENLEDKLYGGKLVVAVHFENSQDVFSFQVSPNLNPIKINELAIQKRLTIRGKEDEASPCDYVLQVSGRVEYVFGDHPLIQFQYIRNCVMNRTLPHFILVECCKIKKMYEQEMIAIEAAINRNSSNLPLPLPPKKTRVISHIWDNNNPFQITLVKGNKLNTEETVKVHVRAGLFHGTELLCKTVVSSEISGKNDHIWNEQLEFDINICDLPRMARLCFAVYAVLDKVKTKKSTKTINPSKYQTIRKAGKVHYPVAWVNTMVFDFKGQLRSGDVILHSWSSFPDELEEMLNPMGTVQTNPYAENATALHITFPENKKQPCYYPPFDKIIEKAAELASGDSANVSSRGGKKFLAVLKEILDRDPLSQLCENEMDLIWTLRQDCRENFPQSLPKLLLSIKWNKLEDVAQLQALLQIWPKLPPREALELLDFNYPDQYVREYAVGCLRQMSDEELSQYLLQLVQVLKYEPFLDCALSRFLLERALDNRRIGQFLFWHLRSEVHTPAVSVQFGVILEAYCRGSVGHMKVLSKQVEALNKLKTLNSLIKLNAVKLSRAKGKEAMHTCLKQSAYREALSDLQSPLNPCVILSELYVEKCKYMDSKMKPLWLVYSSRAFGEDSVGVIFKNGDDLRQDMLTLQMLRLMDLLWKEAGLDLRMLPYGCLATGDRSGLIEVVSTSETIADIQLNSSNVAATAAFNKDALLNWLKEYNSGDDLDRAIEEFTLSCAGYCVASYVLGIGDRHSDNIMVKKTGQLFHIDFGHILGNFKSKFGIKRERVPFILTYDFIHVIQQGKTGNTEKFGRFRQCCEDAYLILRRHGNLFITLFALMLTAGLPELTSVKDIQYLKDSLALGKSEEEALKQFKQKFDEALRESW
T1 sequence (O08908 318-722 partner): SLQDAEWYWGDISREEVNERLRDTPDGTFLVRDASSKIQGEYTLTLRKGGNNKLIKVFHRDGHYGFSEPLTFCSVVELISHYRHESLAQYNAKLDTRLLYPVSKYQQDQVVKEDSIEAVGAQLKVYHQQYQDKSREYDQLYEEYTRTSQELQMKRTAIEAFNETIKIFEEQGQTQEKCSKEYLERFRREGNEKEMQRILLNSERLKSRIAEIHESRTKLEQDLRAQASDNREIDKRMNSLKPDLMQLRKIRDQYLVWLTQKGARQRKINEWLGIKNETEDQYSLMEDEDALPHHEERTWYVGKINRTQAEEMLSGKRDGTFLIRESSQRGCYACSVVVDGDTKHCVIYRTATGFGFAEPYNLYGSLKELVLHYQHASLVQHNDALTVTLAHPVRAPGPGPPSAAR
Protocol: as §1, §2, §3, §4
volume. […]

EC50 ([1]; absence of pY2, read-out: EC50 (enzyme concentration), lipid kinase activity, basal): 38 nM
EC50 ([1]; with 10 μM PDGFR pY2, read-out: EC50 (enzyme concentration), lipid kinase activity, + pY2): 57 nM
basal activity with diC8-PIP2/POPS [2]: very low basal activity
B1: p110β-ΔCter/nic: truncation mutant lacking 17 residues from the p110β C terminus; human ΔCter (1-1053) used in cells (protein, UniProt P42338 1-1053, looked up, fragment)
chain: MCFSFIMPPAMADILDIWAVDSQIASDGSIPVDFLLPTGIYIQLEVPREATISYIKQMLWKQVHNYPMFNLLMDIDSYMFACVNQTAVYEELEDETRRLCDVRPFLPVLKLVTRSCDPGEKLDSKIGVLIGKGLHEFDSLKDPEVNEFRRKMRKFSEEKILSLVGLSWMDWLKQTYPPEHEPSIPENLEDKLYGGKLIVAVHFENCQDVFSFQVSPNMNPIKVNELAIQKRLTIHGKEDEVSPYDYVLQVSGRVEYVFGDHPLIQFQYIRNCVMNRALPHFILVECCKIKKMYEQEMIAIEAAINRNSSNLPLPLPPKKTRIISHVWENNNPFQIVLVKGNKLNTEETVKVHVRAGLFHGTELLCKTIVSSEVSGKNDHIWNEPLEFDINICDLPRMARLCFAVYAVLDKVKTKKSTKTINPSKYQTIRKAGKVHYPVAWVNTMVFDFKGQLRTGDIILHSWSSFPDELEEMLNPMGTVQTNPYTENATALHVKFPENKKQPYYYPPFDKIIEKAAEIASSDSANVSSRGGKKFLPVLKEILDRDPLSQLCENEMDLIWTLRQDCREIFPQSLPKLLLSIKWNKLEDVAQLQALLQIWPKLPPREALELLDFNYPDQYVREYAVGCLRQMSDEELSQYLLQLVQVLKYEPFLDCALSRFLLERALGNRRIGQFLFWHLRSEVHIPAVSVQFGVILEAYCRGSVGHMKVLSKQVEALNKLKTLNSLIKLNAVKLNRAKGKEAMHTCLKQSAYREALSDLQSPLNPCVILSELYVEKCKYMDSKMKPLWLVYNNKVFGEDSVGVIFKNGDDLRQDMLTLQMLRLMDLLWKEAGLDLRMLPYGCLATGDRSGLIEVVSTSETIADIQLNSSNVAAAAAFNKDALLNWLKEYNSGDDLDRAIEEFTLSCAGYCVASYVLGIGDRHSDNIMVKKTGQLFHIDFGHILGNFKSKFGIKRERVPFILTYDFIHVIQQGKTGNTEKFGRFRQCCEDAYLILRRHGNLFITLFALMLTAGLPELTSVKDIQYLKDSLALGKSEEEALKQFKQKFDEALRESW
